Source: article PMC6013222, “SNPs in inflammatory genes CCL11, CCL4 and MEFV in a fibromyalgia family study” (PLoS ONE, 2018)
Substitutions are numbered along the chain they refer to. Names may count otherwise. Each block holds one binder with its values, some of them ahead of it.

Legend:
[1] = target: T1, Recombinant human CCL4 (MIP-1β), wild type (human), P13236; assay: SEC; Superdex 200 10/30 column, 0.5 mL/min in PBS, UV detection at 214 and 280 nm; settings: remark: other sources report otherwise
T1 chain: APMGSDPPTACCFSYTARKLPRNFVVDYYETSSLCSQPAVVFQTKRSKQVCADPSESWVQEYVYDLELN

[2] = target: the molecule itself; assay: as above

stoichiometry N [1]: 2
B1: Recombinant human CCL4 (MIP-1β), wild type, P13236 24-92 (ligand)
chain: T1 chain

B2: Recombinant human CCL4 variant (S80T) (ligand, UniProt P13236 24-92, looked up)
chain: T1 chain with S57T
notes: C-C motif chemokine 4 (CCL4, MIP-1β), human, natural variant Ser80Thr from SNP rs1719152, recombinant; On SEC two broad peaks: a high molecular weight aggregate (>300 kDa) and a 16 kDa dimer; also called varCCL4; variant CCL4; source: bought: Kingfisher Biotech, Inc
stoichiometry N [2]: 2
